Results published in patent US4732973A, “Active site modified protease α-1-antitrypsin inhibitors” (Chiron Corporation, priority 1984, dated 1988).
“And” between values parts separate entries of the source, which are not always exact repeats. Equal entries are not always repeated.

Experiments:
[1] = system: human leukocyte elastase (HLE); experiment: Anti-elastase activity: inhibition of human leukocyte elastase cleavage of MeO-Suc-Ala-Ala-Pro-Val-p-nitroanilide (A410); assay type: biochemical
Procedure: For the assay, extracts were diluted in 50 mM Tris pH8, 50 mM NaCl. […] Assays were initiated by the addition of 0.1 5 μg HLE and were incubated for 15 min at 28° C., terminated by the addition of 100 μl of 8N acetic acid and the absorbance at 410 nm determined (Beatty et al., supra). Protein concentrations were determined as described in Bradford, Anal. Biochem. (1976) 72:248-253. From the amount of human leukocyte elastase activity observed, given the protein concentration of the yeast extracts and the amount of the enzyme added, the percentage of the yeast soluble protein which is α1 -antitrypsin can be calculated. It is assumed that there is 100 percent human leukocyte elastase activity, a 1:1 complex between human leukocyte elastase and α1 -antitrypsin whose molecular weights are 29 kD and 42 kD, respectively.

[2] = system: human leukocyte elastase (HLE); experiment: Oxidation resistance: N-chlorosuccinimide (NCS) treatment, then anti-HLE activity assay; assay type: biochemical
Procedure: To determine the anti-elastase activities of the mutant (Val) or wild-type (Met) α1 -antitrypsin, appropriate yeast extracts were incubated with human leukocyte elastase (HLE) and a synthetic peptide substrate the cleavage of which can be assayed at 410 nm (Beatty et al., supra). For the assay, extracts were diluted in 50 mM Tris pH8, 50 mM NaCl. […] Assays were initiated by the addition of 0.1 5 μg HLE and were incubated for 15 min at 28° C., terminated by the addition of 100 μl of 8N acetic acid and the absorbance at 410 nm determined (Beatty et al., supra).
For this purpose, aliquots of the extracts were diluted in 50 mM Tris pH8, 50 mM NaCl, incubated at room temperature for 5 min in 100 μl of 50 mM Tris pH8, with the indicated amount of NCS, and assayed for anti-HLE activity.

## α1 AT: Control human α1-antitrypsin added in μg amounts to the elastase assay
[1]; Table 1, 0.2 μg control human α1 AT, no NCS
  Elastase Activity (%): 67%
[1]; Table 1, 1.0 μg control human α1 AT plus 3.8 μl Cl/l yeast extract, no NCS
  Elastase Activity (%): 12%
[1]; Table 1, 1.0 μg control human α1 AT, no NCS
  Elastase Activity (%): 5% and 0%
[1]; Table 2, 0.5 μg control human α1 AT, NCS -
  Elastase Activity (%): 44%
[1]; Table 2, 1.0 μg control human α1 AT, NCS -
  Elastase Activity (%): 10%
[2]; Table 1, 1.0 μg control human α1 AT plus 3.8 μl Cl/l yeast extract, NCS (10 mM) 10 μl
  Elastase Activity (%): 84%
[2]; Table 1, 1.0 μg control human α1 AT, NCS (10 mM) 10 μl
  Elastase Activity (%): 91%
[2]; Table 2, 0.5 μg control human α1 AT, NCS (10 mM) +
  Elastase Activity (%): 96%
